# Source: patent US20070196354A1, “Method of treating diabetes by inhibiting degradation of at least one of crebl1, atf6, and hnf-4 alpha by htra” (priority 2003, published 2007)
# T1: CREBL1 (Homo sapiens, UniProt Q99941)
# T1 construct: expressed in transfected cells; host or cells: HEK293T
# T1 sequence (Q99941 1-703): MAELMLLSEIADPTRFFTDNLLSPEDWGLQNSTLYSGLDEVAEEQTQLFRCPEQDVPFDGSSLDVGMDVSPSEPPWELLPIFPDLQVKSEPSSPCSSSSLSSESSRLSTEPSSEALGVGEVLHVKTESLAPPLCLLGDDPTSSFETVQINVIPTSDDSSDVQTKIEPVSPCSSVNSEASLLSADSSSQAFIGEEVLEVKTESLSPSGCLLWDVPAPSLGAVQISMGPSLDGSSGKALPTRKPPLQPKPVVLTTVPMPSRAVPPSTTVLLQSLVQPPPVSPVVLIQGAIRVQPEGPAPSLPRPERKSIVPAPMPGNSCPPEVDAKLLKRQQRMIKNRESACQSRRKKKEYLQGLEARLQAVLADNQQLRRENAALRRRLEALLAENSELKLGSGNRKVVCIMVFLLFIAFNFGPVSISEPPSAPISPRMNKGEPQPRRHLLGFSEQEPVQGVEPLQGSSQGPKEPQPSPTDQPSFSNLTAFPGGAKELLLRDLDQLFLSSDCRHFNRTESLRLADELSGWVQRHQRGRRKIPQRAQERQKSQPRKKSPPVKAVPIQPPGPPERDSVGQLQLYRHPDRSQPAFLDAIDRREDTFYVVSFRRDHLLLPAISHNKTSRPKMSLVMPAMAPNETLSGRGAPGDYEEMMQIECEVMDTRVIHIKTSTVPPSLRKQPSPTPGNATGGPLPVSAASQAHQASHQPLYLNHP
# B1: mature HtrA2: SEQ ID NO: 4; mature protein generated from HtrA2 precursor by cleavage of N-terminal 133 residues, has protease activity (protein, listed as Homo sapiens)
# chain: MAVPSPPPASPRSQYNFIADVVEKTAPAVVYIEILDRHPFLGREVPISNGSGFVVAADGLIVTNAHVVADRRRVRVRLLSGDTYEAVVTAVDPVADIATLRIQTKEPLPTLPLGRSADVRQGEFVVAMGSPFALQNTITSGIVSSAQRPARDLGLPQTNVEYIQTDAAIDFGNSGGPLVNLDGEVIGVNTMKVTAGISFAIPSDRLREFLHRGEKKNSSSGISGSQRRYIGVMMLTLSPSILAELQLREPSFPDVQHGVLIHKVILGSPAHRAGLRPGDVILAIGEQMVQNAEDVYEAVRTQSQLAVQIRRGRETLTLYVTPEVTE
# modifications: mature HtrA2
# Columns and labels:
# casein = assay: Casein zymography and protease assay with casein sodium; type: biochemical; conditions: casein zymography and casein sodium protease assay, 37° C., E. coli-expressed His-tagged protein
# CREBL1 = molecular target: T1, CREBL1; assay: In vitro protease assay, CREBL1 captured on resin; type: biochemical; conditions: 50 μg/ml, 37° C., overnight (O/N), anti-c-Myc detection
# Method: CREBL1 and ATF6 which were captured on the resin were used in the experiments in order to eliminate the influence of proteinaceous impurities contained in the soluble fractions prepared from the cells obtained by transfecting an expression plasmid of CREBL1 or ATF6. Three hundreds μl of each soluble fraction of CREBL1 and ATF6 was dispensed to six tubes (Nos. 1 to 6), followed by adding 20 μl of protein G sepharose 4 FF (Amersham) of 50% slurry that had been subjected to blocking with BSA, to each of tubes, subjected to overturned mixing at 4° C. for 1 hour, and then subjected to centrifugation (10,000 rpm, 10 sec, 4° C.) to collect the supernatant, and thus the pre-treatment (pre-clean) was performed. The resultant supernatant was mixed with 1.7 μl (2 μg) of anti-Myc antibody (Invitrogen), subjected to overturned mixing at 4° C. for 3 hours, followed by adding 20 μl of protein G sepharose 4 FF that had been subjected to blocking with BSA, and then subjected to overturned mixing at 4° C. overnight. Thus, CREBL1 and ATF6 were respectively captured on protein G sepharose 4 FF. […]
molecule,measurement,setting,value
B1,degradation of casein,casein,degradation of casein by mature HtrA2 was observed
same,degradation of CREBL1 (band by western blotting),CREBL1,the band of CREBL1 was reduced significantly
